Residue numbers refer to the chain shown, from its start.
B1: SEQ ID NO: 79 (Fc fusion)
chain: DKTHTCPPCPAPEAAGGPSVFLFPPKPKDTLMISRTPEVTCVVVDVSHEDPEVKFNWYVDGVEVHNAKTKPREEQYNSTYRVVSVLTVLHQDWLNGKEYKCKVSNKALAAPIEKTISKAKGQPREPQVYTLPPSRDELTKNQVSLTCLVKGFYPSDIAVEWESNGQPENNYKTTPPVLDSDGSFFLYSKLTVDKSRWQQGNVFSCSVLHEALHSHYTQKSLSLSPGKGGSDSWQEEVIKLCGRELVRAQIAICGKSTGGGEGGGEGGGEGRQDYSALANKCCHVGCTKRSLAQFC
B2: SEQ ID NO: 82 (Fc fusion)
chain: B1 chain with G260E, E261G, G262E, G267E, E269G, G270S, D273L
B3: SEQ ID NO: 85 (Fc fusion)
chain: B1 chain with G260E, E261G, G262E, G267E, E269G, G270S
B4: SEQ ID NO: 78 (Fc fusion)
chain: DKTHTCPPCPAPEAAGGPSVFLFPPKPKDTLMISRTPEVTCVVVDVSHEDPEVKFNWYVDGVEVHNAKTKPREEQYNSTYRVVSVLTVLHQDWLNGKEYKCKVSNKALAAPIEKTISKAKGQPREPQVYTLPPSRDELTKNQVSLTCLVKGFYPSDIAVEWESNGQPENNYKTTPPVLDSDGSFFLYSKLTVDKSRWQQGNVFSCSVLHEALHSHYTQKSLSLSPGGGSDSWQEEVIKLCGRELVRAQIAICGKSTGGGEEGGGEEGGGRQLYSALANKCCHVGCTKRSLAQFC
B5: SEQ ID NO: 81 (Fc fusion)
chain: B4 chain with E261G, G264E, E265G, E266G, G268E, L272D
B6: SEQ ID NO: 84 (Fc fusion)
chain: B4 chain with G259E, E260G, G264E, E265G, G269S
B7: SEQ ID NO: 80 (Fc fusion)
chain: B4 chain with E261G, G264E, E265G, E266G, G268E, L272D, Q292R
B8: SEQ ID NO: 83 (Fc fusion)
chain: B4 chain with G259E, E260G, G264E, E265G, G269S, Q292R

biological target: human RXFP1, full-length (human), Q9HBX9; experiment: cell-based or functional assay
Sequence (Q9HBX9 whole entry): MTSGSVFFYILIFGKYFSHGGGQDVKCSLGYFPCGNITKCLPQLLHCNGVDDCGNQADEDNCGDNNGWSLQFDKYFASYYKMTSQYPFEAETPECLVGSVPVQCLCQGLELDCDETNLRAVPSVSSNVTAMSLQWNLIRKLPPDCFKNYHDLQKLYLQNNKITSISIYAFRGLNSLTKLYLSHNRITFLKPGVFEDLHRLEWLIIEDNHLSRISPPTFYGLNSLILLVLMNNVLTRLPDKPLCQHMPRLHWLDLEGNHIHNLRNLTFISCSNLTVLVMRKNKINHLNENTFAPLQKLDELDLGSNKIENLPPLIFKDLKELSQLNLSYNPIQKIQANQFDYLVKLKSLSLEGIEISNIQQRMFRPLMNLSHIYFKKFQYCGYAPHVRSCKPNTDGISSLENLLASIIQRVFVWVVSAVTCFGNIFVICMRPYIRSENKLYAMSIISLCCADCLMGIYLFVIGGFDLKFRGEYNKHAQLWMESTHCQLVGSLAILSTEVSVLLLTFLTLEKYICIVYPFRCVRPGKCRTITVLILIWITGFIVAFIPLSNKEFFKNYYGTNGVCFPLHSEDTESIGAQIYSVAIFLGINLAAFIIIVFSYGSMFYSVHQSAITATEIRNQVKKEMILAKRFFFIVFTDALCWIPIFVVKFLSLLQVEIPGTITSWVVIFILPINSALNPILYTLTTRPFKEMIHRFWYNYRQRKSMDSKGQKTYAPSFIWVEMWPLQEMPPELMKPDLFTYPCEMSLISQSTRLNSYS

Row | Potency Assay EC50 (nM), transient hRXFP1 cAMP assay [nM] | Binder
1 | 117 | B1
2 | 18.9 | B2
3 | 54.4 | B3
4 | 23.4 | B4
5 | 426 | B5
6 | 41.9 | B6
7 | 162 | B7
8 | 9.3 | B8

Reference: patent publication US20230340058A1
